The text below walks through data of patent publication US12233115B2, “Long-acting parathyroid hormone” (Extend Biosciences, Inc., priority 2022, dated 2025).

“And” between values parts separate entries of the source, which are not always exact repeats. Equal entries are not always repeated.

A short description of data set [1]: Single dose pharmacokinetics of EXT607 in male cynomolgus monkeys. Format: in vivo. Particulars: cynomolgus monkey. Here is the method: In a single dose pharmacokinetic study, EXT607 was formulated in PBS and groups of male cynomolgus monkeys (n=3), weighing approximately 4 kg each, were dosed at a volume of 1 ml/kg as follows: Group 1, 20 μg/kg intravenous; Group 2, 7 μg/kg subcutaneous; Group 3, 20 μg/kg subcutaneous; Group 4, 70 μg/kg subcutaneous. Blood (1.0 mL) was collected via the jugular vein cannula, transferred into tubes containing K2EDTA, and kept on wet ice until processed for plasma. Blood samples were collected at 0 (pre-dose), 0.083 (IV only), 0.25, 0.5, 1, 2, 4, 6, 8, 12, 24, 36, 48, 60 and 72 h post-dose.
Pharmacokinetic parameters were determined from the plasma concentration versus time data (Table 5) by a non-compartmental analysis with uniform weighting using Phoenix® WinNonlin® Version 6.3 (Certara L.P. (Pharsight), St. Louis, MO). The concentration versus time data were analyzed using the IV bolus or extravascular administration models. Best fit Lambda z ranges were used.
At low doses, the rate of subcutaneous absorption is slower than at high doses, leading to a lower Cmax and an overall flatter PK profile.

A short description of data set [2]: Single dose pharmacokinetics of EXT607 in male rats. As to conditions: in vivo, rat. Here is the method:
In a single dose pharmacokinetic study, EXT607 was formulated in PBS and groups of male rats (n=3) were dosed at a volume of 1 ml/kg as follows: Group 1, 100 μg/kg intravenous; Group 2, 30 μg/kg subcutaneous; Group 3, 100 μg/kg subcutaneous; Group 4, 300 μg/kg subcutaneous. Blood (0.25 mL) was collected via the jugular vein cannula, transferred into tubes containing K2EDTA, and kept on wet ice until processed for plasma. Blood samples were collected at 0 (predose), 0.083 (IV only), 0.25, 0.5, 1, 2, 4, 6, 8, 12, 24, 36, 48, 60 and 72 h postdose.
Pharmacokinetic parameters were determined from the plasma concentration versus time data (Table 4) by a non-compartmental analysis with uniform weighting using Phoenix® WinNonlin® Version 6.3 (Certara L.P. (Pharsight), St. Louis, MO). The concentration versus time data were analyzed using the IV bolus or extravascular administration models. Best fit Lambda z ranges were used.

For data set [3], the system named is Thyroparathyroidectomized (TPTx) rats. The data set is described as follows: 28-day pharmacodynamic study in thyroparathyroidectomized (TPTx) rats. Format: in vivo, rat. As to conditions: for % Increase in Serum Calcium, Cumulative: Days 1, 12, 27, relative to TPTx/vehicle; for increase in serum calcium compared to TPTx controls (in words): daily SC dosing (EXT607 1, 3, 10 nmol/kg; PTH peptides 10 nmol/kg); for decrease in serum phosphate (in words): daily SC dosing (EXT607 all dose levels; PTH peptides 10 nmol/kg), from Day 12. An excerpt:
28-day Pharmacodynamic Study of EXT607 in TPTx Rats. Thyroparathyroidectomized (TPTx) rats are a model for hypoparathyroidism. To produce TPTx rats, the thyroid and parathyroid glands were surgically resected and the rats were given L-thyroxine to compensate for the loss of their thyroid. Due to the absence of PTH, TPTx rats had lower levels of serum calcium and higher levels of serum phosphate.
Each group consisted of 10 female rats split into two cohorts of 5 animals for blood sampling purposes. On days 1, 12, and 27, blood (˜0.2 ml) was collected into serum separation tubes at t=0 (pre-dose), 2, 6, 10, and 24 h. The samples were processed into serum by standard methods and analyzed for serum total calcium and phosphate.
Calcium levels at 3 and 10 nmol/kg (20 and 60 μg/kg) were at or just below the normal range of calcium levels for healthy animals. […] For each timepoint, the percent increase in serum calcium relative to the TPTx vehicle control group (Group 2) was determined and daily averages were calculated (Table 9B). Over the three days sampled (Days 1, 12, and 27), […] increased serum calcium an average of 17, 28, and 37% at 1, 3, and 10 nmol/kg, respectively.
At each timepoint, the percent decrease in serum phosphate relative to the TPTx vehicle control group (Group 2) was determined, and daily averages were calculated (Table 9C).

[4] abbreviates: 7 μg/kg SC relative to 70 μg/kg SC.
Setting [5] is: 20 μg/kg SC relative to 70 μg/kg SC.
The mark [6] stands for this setting: in vivo, 7 ug/kg, single 7 μg/kg SC.
Setting [7] is: in vivo, 20 ug/kg, single 20 μg/kg IV.
[8] abbreviates: in vivo, 20 ug/kg, single 20 μg/kg SC.
[9] abbreviates: in vivo, 70 ug/kg, single 70 μg/kg SC.
The mark [10] stands for this setting: 10 nmol/kg SC daily, Day 1, relative to TPTx/vehicle.
[11] abbreviates: 10 nmol/kg SC daily, Day 12, relative to TPTx/vehicle.
The mark [12] stands for this setting: 10 nmol/kg SC daily, Day 27, relative to TPTx/vehicle.

In general, AUC(0-inf) refers to total exposure, with the tail of the curve extrapolated. Higher therefore signals more exposure. For orientation: MRT means the average time that molecules of a dose stay in the body. By AUC(0-t) is commonly meant exposure summed from dosing to a finite time, without extrapolation to infinity. A lower AUC(0-t) goes with low exposure. By bioavailability is commonly meant the share of a dose that reaches the circulation, judged against a reference dose that is usually intravenous. As for `C=C1CC[C@H](OCCCNC(=O)CCOCCOCCOCCOCCOCCOCCOCCOCCOCCOCCOCCOCCOCCOCCOCCOCCOCCOCCOCCOCCOCCOCCOCCOCCOCCOCCOCCOCCOCCOCCOCCOCCOCCOCCOCCOCCNC(=O)CCN2C(=O)CC(SC[C@H](NC(=O)[C@H](Cc3ccccc3)NC(=O)[C@H](CC(N)=O)NC(=O)[C@H](Cc3c[nH]cn3)NC(=O)[C@@H](NC(=O)[C@H](CC(=O)O)NC(=O)[C@H](CCC(N)=O)NC(=O)[C@H](CC(C)C)NC(=O)[C@H](CCCCN)NC(=O)[C@H](CCCCN)NC(=O)[C@H](CCCNC(=N)N)NC(=O)[C@H](CC(C)C)NC(=O)[C@H](Cc3c[nH]c4ccccc34)NC(=O)[C@H](CCC(=O)O)NC(=O)[C@@H](NC(=O)[C@H](CCCNC(=N)N)NC(=O)[C@H](CCC(=O)O)NC(=O)[C@H](CCSC)NC(=O)[C@H](CO)NC(=O)[C@H](CC(N)=O)NC(=O)[C@H](CC(C)C)NC(=O)[C@H](Cc3c[nH]cn3)NC(=O)[C@H](CCCCN)NC(=O)CNC(=O)[C@H](CC(C)C)NC(=O)[C@H](CC(N)=O)NC(=O)[C@H](Cc3c[nH]cn3)NC(=O)[C@H](CCSC)NC(=O)[C@H](CC(C)C)NC(=O)[C@H](CCC(N)=O)NC(=O)[C@@H](NC(=O)[C@H](CCC(=O)O)NC(=O)[C@H](CO)NC(=O)[C@@H](NC(=O)[C@@H](N)CO)C(C)C)[C@@H](C)CC)C(C)C)C(C)C)C(=O)O)C2=O)C/C1=C/C=C1\CCC[C@]2(C)[C@@H]([C@H](C)CCCC(C)(C)O)CC[C@@H]12` (some centres unmarked) [EXT607], the “dose-adjusted AUC ratio” value in data set [1] (setting [4]) was 0.95; in data set [1] (setting [5]), 0.85; in data set [1] (70 μg/kg SC (reference)), 1.00. Besides, the “dose-adjusted Cmax ratio” value came to 0.28 in data set [1] (setting [4]), 0.55 in data set [1] (setting [5]) and 1.00 in data set [1] (70 μg/kg SC (reference)). Moreover, the half-life in data set [1] (in vivo, sc, NHP, after subcutaneous dosing, read-out: terminal half-life) was 24 to 32 h; in data set [1] (in vivo, 7 ug/kg, single 7 μg/kg SC, read-out: t1/2 (converted)), 24 h; in data set [1] (in vivo, 20 ug/kg, single 20 μg/kg IV, read-out: t1/2 (converted)), 32.3 h; in data set [1] (in vivo, 20 ug/kg, single 20 μg/kg SC, read-out: t1/2 (converted)), 24.3 h; in data set [1] (in vivo, 70 ug/kg, single 70 μg/kg SC, read-out: t1/2 (converted)), 27.7 h; in data set [1] (in vivo, across doses, read-out: t1/2 of elimination), 24 to 32 h. The half-life in data set [2] (300 ug/kg, SC 30, 100 or 300 μg/kg, read-out: half-life) lay within 7 to 15 h; in data set [2] (sc, rats, after subcutaneous dosing, read-out: terminal half-life), 8 to 15 h. Moreover, the AUC(0-inf) in data set [1] (setting [6]) was determined as 483 ng·h/mL; in data set [1] (setting [7]), 2850 ng·h/mL; in data set [1] (setting [8]) it was 1290 ng·h/mL; in data set [1] (setting [9]), 5300 ng·h/mL; in data set [2] (30 ug/kg, single 30 μg/kg SC), 186 ng·h/mL; in data set [2] (100 ug/kg, single 100 μg/kg IV), 4390 ng·h/mL. The AUC(0-inf) in data set [2] (100 ug/kg, single 100 μg/kg SC) was 472 ng·h/mL; in data set [2] (300 ug/kg, single 300 μg/kg SC) it was 1290 ng·h/mL. Moreover, the MRT in data set [1] (setting [6]) was 29.5 h; in data set [1] (setting [7]), 11.2 h; in data set [1] (setting [8]) it was 23.3 h; in data set [1] (setting [9]) it was 17.5 h; in data set [2] (30 ug/kg, single 30 μg/kg SC) it was 15.9 h; in data set [2] (100 ug/kg, single 100 μg/kg IV), 3.49 h. Besides, the MRT turned out to be 13.7 h in data set [2] (100 ug/kg, single 100 μg/kg SC) and 13.6 h in data set [2] (300 ug/kg, single 300 μg/kg SC). In addition, the C0 worked out at 782 ng/mL in data set [1] (setting [7]) and 2860 ng/mL in data set [2] (100 ug/kg, single 100 μg/kg IV). In addition, the Vd was determined as 0.34 L/kg in data set [1] (in vivo, 20 ug/kg, single 20 μg/kg IV, read-out: VZ) and 0.304 L/kg in data set [2] (100 ug/kg, single 100 μg/kg IV, read-out: VZ). In addition, the area under the curve AUC(0-t) in data set [1] (setting [8]) worked out at 1160 ng·h/mL. The bioavailability in data set [1] (in vivo, across SC doses, read-out: bioavailability when delivered subcutaneously) was 45 to 54%; in data set [2] (30 ug/kg, single 30 μg/kg SC, read-out: Bioavailability) it was 12.9%; in data set [2] (100 ug/kg, single 100 μg/kg SC, read-out: Bioavailability), 10.7%; in data set [2] (300 ug/kg, single 300 μg/kg SC, read-out: Bioavailability) it was 9.67%; in data set [2] (male rats, based on AUC vs intravenous injection, across SC doses, read-out: subcutaneous bioavailability (% F)), 10 to 13%.
Consider `CC[C@H](C)[C@H](NC(=O)[C@H](CCC(=O)O)NC(=O)[C@H](CO)NC(=O)[C@@H](NC(=O)[C@@H](N)CO)C(C)C)C(=O)N[C@@H](CCC(N)=O)C(=O)N[C@@H](CC(C)C)C(=O)N[C@@H](CCSC)C(=O)N[C@@H](Cc1c[nH]cn1)C(=O)N[C@@H](CC(N)=O)C(=O)N[C@@H](CC(C)C)C(=O)NCC(=O)N[C@@H](CCCCN)C(=O)N[C@@H](Cc1c[nH]cn1)C(=O)N[C@@H](CC(C)C)C(=O)N[C@@H](CC(N)=O)C(=O)N[C@@H](CO)C(=O)N[C@@H](CCSC)C(=O)N[C@@H](CCC(=O)O)C(=O)N[C@@H](CCCNC(=N)N)C(=O)N[C@H](C(=O)N[C@@H](CCC(=O)O)C(=O)N[C@@H](Cc1c[nH]c2ccccc12)C(=O)N[C@@H](CC(C)C)C(=O)N[C@@H](CCCNC(=N)N)C(=O)N[C@@H](CCCCN)C(=O)N[C@@H](CCCCN)C(=O)N[C@@H](CC(C)C)C(=O)N[C@@H](CCC(N)=O)C(=O)N[C@@H](CC(=O)O)C(=O)N[C@H](C(=O)N[C@@H](Cc1c[nH]cn1)C(=O)N[C@@H](CC(N)=O)C(=O)N[C@@H](Cc1ccccc1)C(=O)O)C(C)C)C(C)C` [PTH(1-34), reference compound], for which, in data set [3] (setting [10]), the “% Decrease in Serum Phosphate, Daily Average” value (shortened to “% Decrease … Daily Average”) is reported as −1.7% and the “% Increase in Serum Calcium, Daily Average” value was found to be 8.0%. In data set [3] (setting [11]), the “% Decrease … Daily Average” value is on record as 9.1% and the “% Increase in Serum Calcium, Daily Average” value is 12%. In data set [3] (setting [12]), the “% Decrease … Daily Average” value was determined as 13% and the “% Increase in Serum Calcium, Daily Average” value is 6.4%. In addition, the “% Increase in Serum Calcium, Cumulative” value in data set [3] (10 nmol/kg SC daily) was 9% and 8.7%. Also, in data set [3], the “increase in serum calcium compared to TPTx controls (in words)” value is “minimal and did not reach statistical significance”; the “decrease in serum phosphate (in words)” value was “Occasional decreases”.

B1: PTH(1-84): wild-type full-length parathyroid hormone, 84 amino acids, SEQ ID NO: 2 (protein, UniProt P01270 32-115, looked up)
Parathyroid hormone: SVSEIQLMHNLGKHLNSMERVEWLRKKLQDVHNFVALGAPLAPRDAGSQRPRKKEDNVLVESHEKSLGEADKADVNVLTKAKSQ
modifications: Parathyroid hormone
In the case of B1, in data set [3] (setting [10]), the “% Decrease … Daily Average” value is 0.2% and the “% Increase in Serum Calcium, Daily Average” value is given as 7.0%. In data set [3] (setting [11]), the “% Decrease … Daily Average” value was 17% and the “% Increase in Serum Calcium, Daily Average” value is given as 14%. Further, in data set [3] (setting [12]), the “% Decrease … Daily Average” value came to 17% and the “% Increase in Serum Calcium, Daily Average” value amounted to 4.1%. In addition, in data set [3] (10 nmol/kg SC daily), the “% Increase in Serum Calcium, Cumulative” value was 9% and 8.5%. Further, in data set [3] (10 nmol/kg SC daily, Days 12, 27, relative to TPTx/vehicle), the “% Decrease in Serum Phosphate, Combined” value was 17%. Also, in data set [3], the “increase in serum calcium compared to TPTx controls (in words)” value is “minimal and did not reach statistical significance with the exception of two isolated timepoints”; the “decrease in serum phosphate (in words)” value is given as “Slight decreases”.
